The values that follow come from publication PMC8489946 (RNA Biology, 2021).

For the assay, the target named is T1, upf1-DE572AA-GFP (S. cerevisiae, UniProt P30771 1-971, DE572AA).
T1 sequence (looked up): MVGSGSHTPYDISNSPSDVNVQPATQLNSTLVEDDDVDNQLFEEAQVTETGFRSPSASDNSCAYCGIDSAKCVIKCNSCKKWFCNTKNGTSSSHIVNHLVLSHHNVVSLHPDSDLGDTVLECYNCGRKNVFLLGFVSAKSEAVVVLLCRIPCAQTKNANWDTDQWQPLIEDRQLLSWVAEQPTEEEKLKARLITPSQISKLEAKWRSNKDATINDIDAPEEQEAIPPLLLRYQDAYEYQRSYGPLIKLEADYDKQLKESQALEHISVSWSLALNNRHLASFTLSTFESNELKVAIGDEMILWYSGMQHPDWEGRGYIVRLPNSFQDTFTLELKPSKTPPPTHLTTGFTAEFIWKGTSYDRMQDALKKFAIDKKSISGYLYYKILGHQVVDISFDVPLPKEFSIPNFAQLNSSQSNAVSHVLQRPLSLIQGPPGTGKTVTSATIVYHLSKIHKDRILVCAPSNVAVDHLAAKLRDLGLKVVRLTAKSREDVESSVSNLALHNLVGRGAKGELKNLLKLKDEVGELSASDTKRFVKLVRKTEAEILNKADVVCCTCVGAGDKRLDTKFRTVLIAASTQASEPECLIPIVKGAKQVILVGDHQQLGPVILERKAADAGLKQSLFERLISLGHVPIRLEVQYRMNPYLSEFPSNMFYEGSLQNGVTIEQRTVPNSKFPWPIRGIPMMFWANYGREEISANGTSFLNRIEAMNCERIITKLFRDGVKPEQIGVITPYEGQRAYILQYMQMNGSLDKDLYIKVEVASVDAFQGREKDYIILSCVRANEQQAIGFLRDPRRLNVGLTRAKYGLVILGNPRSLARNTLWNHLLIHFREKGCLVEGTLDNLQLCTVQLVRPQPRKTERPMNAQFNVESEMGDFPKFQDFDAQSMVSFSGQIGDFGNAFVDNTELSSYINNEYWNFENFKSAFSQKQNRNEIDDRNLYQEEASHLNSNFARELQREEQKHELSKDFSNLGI
Briefly: co-IP.

B1: Gbp2 (natural protein, UniProt P25555 1-427, looked up)
chain: MERELGMYGNDRSRSRSPVRRRLSDDRDRYDDYNDSSSNNGNGSRRQRRDRGSRFNDRYDQSYGGSRYHDDRNWPPRRGGRGRGGSRSFRGGRGGGRGRTLGPIVERDLERQFDATKRNFENSIFVRNLTFDCTPEDLKELFGTVGEVVEADIITSKGHHRGMGTVEFTKNESVQDAISKFDGALFMDRKLMVRQDNPPPEAAKEFSKKATREEIDNGFEVFIINLPYSMNWQSLKDMFKECGHVLRADVELDFNGFSRGFGSVIYPTEDEMIRAIDTFNGMEVEGRVLEVREGRFNKRKNNDRYNQRREDLEDTRGTEPGLAQDAAVHIDETAAKFTEGVNPGGDRNCFIYCSNLPFSTARSDLFDLFGPIGKINNAELKPQENGQPTGVAVVEYENLVDADFCIQKLNNYNYGGCSLQISYARRD
B1: the “fold co-precipitation relative to wild-type Upf1-GFP” value was above 1.5 fold.
